One molecule from paper PMC4148193, “Chromatin Insulator Factors Involved in Long-Range DNA Interactions and Their Role in the Folding of the Drosophila Genome” (PLoS Genetics, 2014) can be followed below.

For series [1], the target named is T1, CP190-C (Drosophila, UniProt Q24478 599-1096).
T1 sequence: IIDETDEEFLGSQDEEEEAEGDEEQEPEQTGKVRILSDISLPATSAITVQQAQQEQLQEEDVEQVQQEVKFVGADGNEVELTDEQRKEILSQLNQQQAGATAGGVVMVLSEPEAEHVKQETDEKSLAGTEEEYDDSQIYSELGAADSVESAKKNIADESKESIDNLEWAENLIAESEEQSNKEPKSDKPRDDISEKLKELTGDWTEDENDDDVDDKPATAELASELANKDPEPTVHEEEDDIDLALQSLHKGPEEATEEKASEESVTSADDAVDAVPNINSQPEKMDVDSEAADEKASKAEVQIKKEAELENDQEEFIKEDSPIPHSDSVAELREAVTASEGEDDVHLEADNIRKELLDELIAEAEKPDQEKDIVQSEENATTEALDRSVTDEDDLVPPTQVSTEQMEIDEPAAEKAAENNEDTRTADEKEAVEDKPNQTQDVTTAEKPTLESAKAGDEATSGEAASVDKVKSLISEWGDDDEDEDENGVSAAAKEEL
Description: FCS; 50 nM; FA/FCS: 30 mM Tris/HCl pH 7.5, 100 mM NaCl, 20 uM ZnSO4, 5 mM mercaptoethanol, 0.01 mg/ml BSA, 0.004% Tween20, 2.5 nM DNA; EMSA: 150 mM NaCl, 30 mM Tris/HCl pH. The following applies: protein: recombinant; tags: N-term 6xHis; blunt.

Series [2] deals with T2, BEAF32 (BEAF32B) (Drosophila, UniProt Q94513 1-282).
T2 sequence: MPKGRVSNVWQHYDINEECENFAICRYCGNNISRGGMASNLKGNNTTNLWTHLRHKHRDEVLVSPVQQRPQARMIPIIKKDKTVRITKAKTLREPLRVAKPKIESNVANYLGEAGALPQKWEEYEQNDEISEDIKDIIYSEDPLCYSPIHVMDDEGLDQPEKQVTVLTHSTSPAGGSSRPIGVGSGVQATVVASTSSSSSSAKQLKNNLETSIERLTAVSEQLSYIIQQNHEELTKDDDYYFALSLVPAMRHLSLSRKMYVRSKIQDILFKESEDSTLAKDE
The series is described as follows: fluorescence anisotropy; Hill n=3±0.4; 20 uM ZnSO4; FA/FCS: 30 mM Tris/HCl pH 7.5, 100 mM NaCl, 20 uM ZnSO4, 5 mM mercaptoethanol, 0.01 mg/ml BSA, 0.004% Tween20, 2.5 nM DNA; EMSA: 150 mM NaCl, 30 mM Tris/HCl pH. Particulars: protein: recombinant; tags: N-term MBP; C-term 6xHis; blunt. On the technique in general: Fluorescence polarisation rises when a labelled molecule tumbles more slowly, as on binding a larger partner.

The target in series [3] is T3, CP190 (Drosophila, UniProt Q24478 1-1096).
T3 sequence: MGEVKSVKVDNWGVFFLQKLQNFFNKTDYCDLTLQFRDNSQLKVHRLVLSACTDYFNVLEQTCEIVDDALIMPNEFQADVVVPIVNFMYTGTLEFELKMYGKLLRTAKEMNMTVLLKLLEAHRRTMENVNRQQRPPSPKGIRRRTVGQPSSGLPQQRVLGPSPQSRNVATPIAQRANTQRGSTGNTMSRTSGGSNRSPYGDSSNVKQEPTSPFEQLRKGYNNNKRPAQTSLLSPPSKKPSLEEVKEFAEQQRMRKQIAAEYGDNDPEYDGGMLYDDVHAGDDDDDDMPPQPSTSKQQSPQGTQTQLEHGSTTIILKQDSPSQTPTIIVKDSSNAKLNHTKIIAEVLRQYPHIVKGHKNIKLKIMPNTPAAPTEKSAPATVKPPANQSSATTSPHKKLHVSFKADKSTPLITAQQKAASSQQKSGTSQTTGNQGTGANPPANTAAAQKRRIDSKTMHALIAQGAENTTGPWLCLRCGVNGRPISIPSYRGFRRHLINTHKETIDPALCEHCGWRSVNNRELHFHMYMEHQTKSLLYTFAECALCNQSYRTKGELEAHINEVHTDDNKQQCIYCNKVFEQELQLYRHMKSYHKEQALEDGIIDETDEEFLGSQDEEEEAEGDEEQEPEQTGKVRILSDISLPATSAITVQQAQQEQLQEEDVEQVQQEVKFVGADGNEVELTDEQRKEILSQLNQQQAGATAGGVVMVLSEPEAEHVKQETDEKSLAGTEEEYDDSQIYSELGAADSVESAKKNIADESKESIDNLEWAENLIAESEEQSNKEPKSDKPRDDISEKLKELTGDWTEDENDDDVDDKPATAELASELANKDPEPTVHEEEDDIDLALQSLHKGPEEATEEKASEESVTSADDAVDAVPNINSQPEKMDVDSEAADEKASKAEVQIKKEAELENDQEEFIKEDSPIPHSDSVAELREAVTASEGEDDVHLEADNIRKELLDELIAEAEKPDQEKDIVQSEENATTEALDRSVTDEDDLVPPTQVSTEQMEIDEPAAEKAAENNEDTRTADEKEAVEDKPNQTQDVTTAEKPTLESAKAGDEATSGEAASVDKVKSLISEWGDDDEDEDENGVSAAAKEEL
Description: competition; unlabeled DNAS vs 2.5 nM Cy3B-DNAS, 200 nM CP190; FA/FCS: 30 mM Tris/HCl pH 7.5, 100 mM NaCl, 20 uM ZnSO4, 5 mM mercaptoethanol, 0.01 mg/ml BSA, 0.004% Tween20, 2.5 nM DNA; EMSA: 150 mM NaCl, 30 mM Tris/HCl pH. Particulars: protein: recombinant; tags: N-term 6xHis; blunt. For orientation: Mobility shift assays separate free from complexed probe on a gel.

For series [4], the target named is T4, BEAF32 (BEAF32B);CP190 (Drosophila;Drosophila, UniProt Q94513;Q24478 1-282;1-1096, |).
T4 sequence 1: T2 sequence
T4 sequence 2: T3 sequence
Description: FCS/PIE-FCCS; 400 nM BEAF32, 50 nM CP190; cross-correlation 18±6%, 65±22% of complexes bridged; FA/FCS: 30 mM Tris/HCl pH 7.5, 100 mM NaCl, 20 uM ZnSO4, 5 mM mercaptoethanol, 0.01 mg/ml BSA, 0.004% Tween20, 2.5 nM DNA; EMSA: 150 mM NaCl, 30 mM Tris/HCl pH. The following applies: protein: recombinant;recombinant; tags: N-term MBP; C-term 6xHis;N-term 6xHis; blunt.

B1: DNAS (dsDNA)
DNA 1: AGAAGTCAGCGCGATAGCATCGATATTTTCGTGACACGCTTGTCATCCGATAGGTAGT
DNA 2: ACTACCTATCGGATGACAAGCGTGTCACGAAAATATCGATGCTATCGCGCTGACTTCT
Take B1: the binding result in series [1] is “no binding”; in series [4] it was “binds”. In addition, in series [2], the Kd is 68 ± 5 nM. In addition, the Ki in series [3] turned out to be 17 ± 4 nM.

In general, Kd refers to the concentration at which binding is half-saturated. One may read the Ki as the dissociation constant of the complex between target and ligand, obtained from inhibition or displacement.
